In publication doi:10.1101/2022.05.30.493996:

Molecular target: Gp57 (purified) (phage SECΦ27)
Experiment: ITC

In the case of “CapRel^SJ46 (purified, full-length) (enzyme)”, the Kd is reported as 190 nM.
